Data as given in the nanobody polyreactivity screen of Harvey et al. (2022).

Test: yeast display, Sf9 membrane polyspecificity reagent, FACS + sequencing; frameworks hold sequencing errors
Summary of the method: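 Genes from sorted yeast were amplified by colony PCR, read by MiSeq 2 × 250 sequencing and filtered on CDR length. These cells carried a synthetic nanobody library in Saccharomyces cerevisiae BJ5465 and were sorted by FACS into low and high (top ~1%) gates on anti-HA and streptavidin fluorescence. Polyreactivity is labelled according to the gate of origin.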

Sequence	polyreactivity (PSR sort gate)
QVQLVESGGGLVQAGGILRLSCAASGFIFQFNAMGWYRQAPGKEMEMDASISVSGGSTYYADSVKGRFTISRDNAKNTVYLQMNSLKPEDTAVYYCAATQRRYTYGHDYWGQGTQVTVSS	low polyreactivity
QVQLVESGGGLVQAGGILRLSCAASGFTFGWNAMGWYRQAPGKERELVAAITSGGITNYADSVKGRFTISRDNAKNTVYLQMNSLKPEDTAVYYCNARPTSRRSWYYWKGYDYWGQGTQVTVSS	high polyreactivity
QVQLVESGGGLVQAGGILRLSCAASGFTFNRNAMGWYRQAPGKERELVAAISWSGTSTYYADSVKGRFTISRDNAKTTVYLQMNSLKPEDTAVYYCAARVKGQWNTYDSWGQGTQVTVST	high polyreactivity
QVQLVESGGGLVQAGGILRLSCAASGIIFSQYTMGWYRQAPGKESELVAAISYTGGRTYYADSVKGRFTISRDNAMNTVYLQMNSLKPEDTAVYYCAADFPIVWYEEYYWGQGTQVTVSS	high polyreactivity
QVQLVESGGGLVQAGGILRLSCAASGITFGRNAMGWYRQAPGKERELVAAITISGGGTYYADSVKGRFTISRDNAKNTVYLQMNSLKPEDTAVYYCAADRSTVWVHYPHAGGSWGHGTQVTVSS	high polyreactivity
QVQLVESGGGLVQAGGILRLSCAASGLIFYYYAMGWYRQAPGKERELVAAIRTNYADSVKGRFTISRDNAKNTVYLQMNSLKPEDTAVYYCAAESSHSPTSAFDYWGQGTQVTVSS	low polyreactivity
QVQLVESGGGLVQAGGILRLSCAASGLTFRDYAMGWYRQAPGKERELVAAISWNGSSTNYADSVKGRFTISRDNAKNTVYLQMNSLKPEDTSVYYCNAYYYYRRPLEGGYWGQGTQVTVSS	low polyreactivity
QVQLVESGGGLVQAGGILRLSCAASGRIFRPNAMGWYRQAPGKERELVAAISSGGSTYYADSVKGRFTLSRDNAKNSVYLQMNSLKPEDSAVYYCNAKASFWSPYDYWGQGTQVTVSS	high polyreactivity
QVQLVESGGGLVQAGGILRLSCAASGRILPSNAMGWYRQAPGKERELVAGITSGGSTDYADSVKGRFTISRDNAKNTVYLQMNSLKQEDTAVYYCNKPFPYYPDGPNGYDYWGLGTQVTVSS	low polyreactivity
QVQLVESGGGLVQAGGILRLSCAASGRIYEIYAMGWYRQAPGKDRELVAAISWRGVSTYYADSVKGPFTISRDNAKNNVYLQMNSLKPEDTAVYYCNKDVDYFWYVEYDYWGQGTQVTVSS	low polyreactivity
QVQLVESGGGLVQAGGILRLSCAASGRTFFVYAMGWYRPAPGTEWEGVAAISNTGGRTYYADSVKGRFTISRDYAKNTVYFQMNSLKPEDTAVYYCAAPYSGPYRSYEYYWGQGTHVTVSS	low polyreactivity
QVQLVESGGGLVQAGGILRLSCAASGRTFGWNAMGWYRQAPGKERELVAAISWSGTNTYYADSVKGRFTISRDNAKNTVYLQMNCLNPEDTAVYYCAARDWTGSWNGYWYWEYNYWGQGTQVTVSS	low polyreactivity
QVQLVESGGGLVQAGGILRLSCAASGRTFSVNAMGWYRQAPGKERELVAAITRRGGSTYYADSVKGRFTISRDYAKNTVYLQMKSLKPEDTAVYYCAAEFVTYYSSSKRAYYYWGQGTQVTVSS	high polyreactivity
QVQLVESGGGLVQAGGILRLSCAASGSIFNYYAMGWYRQAPGKEREMVAAITTSGGRTYYADSVKGRFTISRDNAKNTVYLQMNSLKPEDTAVYYCAARGYGRRAYVYRYDYWGQGTQVTVSS	high polyreactivity
QVQLVESGGGLVQAGGILRLSCAASGSIFSPNAKGWYRQAPGKVRQLVAAIDFSAGSTYYADSVKGRFTISRDNAKNTVYLQMHSLKPEDTAVYYCAADYYYSYCYWFSSSYGYWGPGTQVTVSS	high polyreactivity
QVQLVESGGGLVQAGGILRLSCAASGSIFVNNAMGLYRQAPGKERELVAAITSGTRTNYADSVKGRFTISRDNAKNTVYLQMNSLKPEDTAVYYCAAVKYRYAYVPPRFDYWGQGTQVTVSS	low polyreactivity
QVQLVESGGGLVQAGGILRLSCAASGSIFYAYAMGWYRQAPGKERELVASITWSGASTYYADSVKGRFTISRDNAKNTVYLQMNSLKPEDTAVYYCAATDQKLSLDYSSYEYWGQGTQVTVSS	low polyreactivity
QVQLVESGGGLVQAGGILRLSCAASGSIFYRYAMGWYRPAPGKERELVAAINWSGGITYYADSEKGRFTISRDNAKITFYLQMISLKPEDTAVYYCAARTHVYNWGYYYWGQGTQVTVSS	high polyreactivity
QVQLVESGGGLVQAGGILRLSCAASGSKIGYYAMVWYRQAPGKERELVAAISAGDRTYYADSVKGRFTISRDNAKNTVYLQMNSLKPEDTAVYYCAAASYYQSYRYGYWGQGTQVTVSS	high polyreactivity
QVQLVESGGGLVQAGGILRLSCAASGSTFARYAMGWYRQEPGKERELVAVIRSGGSTNYADSVKGRFTISRDNAKNTVYLQMNSLKPEDTAGAADQWTIHRWATYGYWGQGTQVTVSS	low polyreactivity
QVQLVESGGGLVQAGGILRLSCAASGSTFAVNAMGWYRQAPGKERELVAAISTSGGSTYYADSVKGRFTISRDNAKNTVYLQMNSLKPEDTSVYDCAAGRVRRRVWYNYWGQGTQVTVSS	high polyreactivity
QVQLVESGGGLVQAGGILRLSCAASGSTFAVYAMGWYRQAPGKERELVAAISRSGGRTYYADSVKGRFTISRDNAKNTVYLQMNCLKPDDTAVYYCAAPSTCSYGSDYWGPGTQVTVSS	high polyreactivity

Sequence	polyreactivity (PSR sort gate)
QVQLVESGGGLVQAGGILRLSCAASGSTFGDYTMGWYRHAPGKERELVAAITLTGGSTFYSDSVKGRFTISRDNAKNTVYLQMNSLKPVDTAVYYCNTDVIRWVGGTWHRYYYWGQGTQVTVSS	low polyreactivity
QVQLVESGGGLVQAGGILRLSCAASGSTFGYNAMGWYRQAPGKERELVAAIRFSGGSTFYADSVKGRFTISRDNAKNTVYLQMNSLKPEDTAVYNCAAGSAYYSQRYFAYGYDSWGQGTQVTVSS	low polyreactivity
QVQLVESGGGLVQAGGILRLSCAASGSTFVGYAMGWNRQAPGKERELVAAISRTGASTYYADSVKGRFTISRDNAKNTVFLQMNSLKPEDTEVYYCAYYYSIYDYWGQGTLVTVSS	high polyreactivity
QVQLVESGGGLVQAGGILRLSCAASGSTFVTYTMGWYRQAPGKERELVATITTSGGSTYYADSVKGRFTISRDNAKNTVYLQMNSLKPEDTAVYYCAADWDPGYYVQYGYDYWGQGTQVTVSS	low polyreactivity
QVQLVESGGGLVQAGGILRLSCAASGSTFYIYAMGWYRQAPGKERELVAAISTTDGTTYYADSVKGRFTISRDNAKNTVYLQMNSLKPEDTAVYYWAAEWFGSVQPAYDYWGQGTQVTVSS	high polyreactivity
QVQLVESGGGLVQAGGILRLSCAASGSTFYYYAMGWYRQAPGKERELVAAISSSGGTTYYADSVKGRLTISRDNAKNTVYLQMNSLKAEVTAVYYCAAQRYPSSLYQRFYYWGQGTQVTVSS	high polyreactivity
QVQLVESGGGLVQAGGILRLSCAASGSTLGKNAMGWYRQAPGKERELVAAISYSGGSTYYADSVKGRFTISRDNAKNTVYLQMNSLKPEDTAVYYCAAQRRYHYWGQGTQVTVSS	low polyreactivity
QVQLVESGGGLVQAGGILRLSCAASGYTFWDYAMGWYRQAPGKEREFVAGISFSDGGTYYADSVKVRFTISRDNAKNTVYLQMNSLKPEDTAVYYCAVPQDSGYGVSEHYNWGQGTQVTVSS	low polyreactivity
QVQLVESGGGLVQAGGILRLSCAAYGSIFPHNAMGWYRQAPGKERELVASITSRGGITYYADSVKGRFTISRDNAKNTGYLQMNSLIPEDTAVYYCAGDLYIYPYDYWGQGTQVTVSS	low polyreactivity
QVQLVESGGGLVQAGGILRLSCAPSGRIFKYYGMGWYRQAPGKERELVAAIYRGSSTNYAHSVKGRFTISRDNAKNTVYLQMNSLKPEDTAVYYCAKVGWSRRYYYWGQGTQVTVSS	high polyreactivity
QVQLVESGGGLVQAGGILRLSCPASGSTLDRYVMGWYRQAPGKERELVAVISQSGGSTYYADSVKGRFTISRDNAKNTVYLQINSLKPEDTAVYYCAAKRYSFAYRQYDYWGQGTQVTVSS	high polyreactivity
QVQLVESGGGLVQAGGILRLSSAASGSTFTLNAMGWYRQEPGKERELVADITSGGGGTYYADSVKGRFTISRDNAKNTVYLQMNSLKPEDTAVYYCAADDFHSLLGYWYGLFDFWGQGTQVTVSS	low polyreactivity
QVQLVESGGGLVQAGGILRVSCAASGRIFRFYAMGWYRQAPGKERELVADISRRGGSTYYADSVKGRFTISRDNAKNTVYLQMNSLKPEDTAVYYCNARWYRTGSTYHDDYWGQGTQVTVSS	high polyreactivity
QVQLVESGGGLVQAGGILSLSCAASGRIFPDNTMGWYRQAPGKQRELVAVITYSGGSTYYADSVKGRFTISRDNAKNTVYLQMNSLNPEDTAVYYCAARDFYIWFAEVDYWGQGTLVTVSS	low polyreactivity
QVQLVESGGGLVQAGGILSLSCAASGRTFCYYTMGWYRQAPGKERELVAAISSGGRTNYADSVKGRFTNSRDNAKITVYLQMISLKPEDTAVYYGATSLYYKYVERDYWGHGTQVTVSS	high polyreactivity
QVQLVESGGGLVQAGGNLRLSCAASGFIFTRYAMGWYRQAPGKERELVAAISTSGDRTYYADSVKGRFTISRDNAKNTVYLQMNSLKPEDTAVYYCAVEASRAGAWYEYWGQGTQVTVSS	high polyreactivity
QVQLVESGGGLVQAGGNLRLSCAASGRTFRFNAMGWYRQAPGKERELVAAISFRGGSTYYADSVKGRFTISRDNAKNTVYLQMTSLKPEDTAVYYCAADNPYQGRKFDYWGQGTQVSVSS	high polyreactivity
QVQLVESGGGLVQAGGNLRLSCAASGSIFAWYVMGWYRQPPGKERELVAGIDTSGGSTFYADSVKGRFTISRDNAKNTVYLQMNSLKPEDTAVYYCAADTWYRGPWEFDYWGQGTQVTVSS	low polyreactivity
QVQLVESGGGLVQAGGPLRLSCAASGFTFGYYTMGWYRQAPGKERELVAAISWRGGRTYYADSVKGRFTISRDNAKNTVYLQMNSLKPEETAVYYCAAEYTYGWTYRPFVYWGQGTQVTVSS	high polyreactivity
QVQLVESGGGLVQAGGPLRVSCAASGIIFDYNAMGWYRQAPGKERELVAAITSTDNTNYADSVKGRFTISRDNAKNTVYLQKNCLKPEDTAVYYCAACSYSRYHYSLYFDFDYWGQGTQVTVSS	low polyreactivity
QVQLVESGGGLVQAGGRHRLSCAASGSTFSYNAMGWYRQAPGKERELVATISNTDSTNYADSVKGRFTISRDNAKNTVYLQMNSLKPEDTAVYYCAVVSARFDYEYWGQGTQVTVSS	low polyreactivity
